# T1: BKB2 receptor (Homo sapiens, UniProt P30411)
# T1 sequence (P30411 1-391): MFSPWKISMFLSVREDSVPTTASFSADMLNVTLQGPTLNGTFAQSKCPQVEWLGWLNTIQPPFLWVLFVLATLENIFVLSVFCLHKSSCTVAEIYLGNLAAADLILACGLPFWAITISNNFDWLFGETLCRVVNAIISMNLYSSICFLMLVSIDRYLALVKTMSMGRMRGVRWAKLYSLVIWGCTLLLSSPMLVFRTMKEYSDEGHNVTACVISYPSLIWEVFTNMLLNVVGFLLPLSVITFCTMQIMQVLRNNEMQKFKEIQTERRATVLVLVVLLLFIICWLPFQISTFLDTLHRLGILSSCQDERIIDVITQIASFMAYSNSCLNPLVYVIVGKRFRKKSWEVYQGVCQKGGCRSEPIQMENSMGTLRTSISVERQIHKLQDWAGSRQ
# Tests used:
# ZDF fa/fa rats [1] = assay: 21-day ZDF fa/fa study: tail cuff blood pressure and heart rate; format: in vivo, rat
# Protocol: (§1) Animals. Male ZDF fa/fa rats were obtained from CRL (Kingston, N.Y.). Upon arrival, rats were seven weeks of age. The rats were housed individually per cage in a room with a photo cycle of 12 hours of light and 12 hours of dark and an ambient temperature of 70-72° F. and fed on regular rodent diet and water ad libitum. At the age of eleven weeks, rats were divided into six groups (Table 5) of eight rats per group based on fasting blood glucose levels. A sub-group of four rats per group was maintained in parallel to the main groups and was dosed similarly for twenty-one days for a hyperinsulinemic-euglycemic clamp study. […]
# An oral glucose tolerance test (OGTT) was performed on Day 0, 7, 14 and 21 for each group of the study. […] Body weight, food and water intake were measured twice a week. Blood pressure and heart rates were monitored on Day 0, 7, 14 and 21 using a non-invasive tail cuff method (with five readings per rat taken and then averaged). […] Glycated (Glycosylated) hemoglobin (HbA1c) was measured at the end of the study. […]
# Blood pressure measurements were performed using a blood pressure monitor and data acquisition software. […] The VPR sensor utilized a differential pressure transducer to non-invasively measure the blood volume in the tail, and determined systolic blood pressure, diastolic blood pressure, and heart rate. […]
# ZDF fa/fa rats [2] = assay: 21-day ZDF fa/fa study: serum total cholesterol and triglyceride; format: in vivo, rat; details: day 21
# Protocol: as §1
# An oral glucose tolerance test (OGTT) was performed on Day 0, 7, 14 and 21 for each group of the study. Plasma samples were collected at each time point during OGTT to also measure insulin levels. Body weight, food and water intake were measured twice a week. Blood pressure and heart rates were monitored on Day 0, 7, 14 and 21 using a non-invasive tail cuff method (with five readings per rat taken and then averaged). Fasting serum samples were collected on Day 0, 7, 14 and 21 before OGTT for determination of triglyceride and total cholesterol level. Urine samples were collected on Day 7 and 14 for the determination of glycosuria. Glycated (Glycosylated) hemoglobin (HbA1c) was measured at the end of the study. Assay kits for these studies were as presented in Table 6, and were used according to the suppliers' instructions.
# The mean change in fasting blood glucose (mg/dL), serum cholesterol (mg/dL) and systolic blood pressure (mm Hg) from baseline (Day 0) to Day 21 was compared between the high-dose (5F12G1, 0.2 mg/kg) and negative control (MG2b-57, 0.2 mg/kg) groups using an analysis of covariance to adjust for baseline levels. The mean HbA1c percentage in high-dose (5F12G1, 0.2 mg/kg) rats was compared to the mean HbA1c percentage for negative control (MG2b-57, 0.2 mg/kg) rats using an unequal-variance, independent two-sample t-test. A significance level of a=0.05 was used for all tests, and all analyses were conducted using SAS statistical software (vs. 9.2, Cary, N.C., U.S.A.).
# BKB2 receptor = target: T1, BKB2 receptor; assay: Intracellular calcium release in CHO-K1/B2/Gα15 cells (FLIPR Calcium 4); format: cell-based; set-up: expressed in transfected cells; details: 0.5 mg/ml; normalized to the positive control; mean+/−SD, n=2
# Protocol: A stable CHO cell line expressing the human BKB2 receptor (CHO-K1/B2/Gα15) was used for the screening. The antibody was diluted to five different concentrations, from 0.5 mg/ml, via three-fold dilution increments, and screened on duplicate cell samples.
# Expression and functional activity of the human BKB2 receptor in the CHO-K1/B2/Gα15 cell line were validated by exposure to the positive control, bradykinin.
# To perform the assay, CHO-K1/B2/Gα15 cells were seeded in wells of a 384-well black-wall, clear-bottom plate at a density of 20,000 cells per well in 20 μL of growth medium 20 hours prior to the day of experiment, and maintained at 37° C./5% CO2. 20 μL of dye-loading solution (FLIPR™ Calcium 4 assay kit, Molecular Devices, Sunnyvale, Calif.) was added into each well and the plate was placed into a 37° C. incubator for 60 minutes, followed by 15 minutes at room temperature. The total reading time was 120 sec. After a 20-second reading to establish the baseline, the antibody or agonist were added to selected wells and the fluorescence signal was captured for another 100 seconds (21 s to 120 s). Readings from wells containing cells stimulated with assay buffer (0.03% Na3N PBS) containing 1% DMSO were chosen as the background values for screening; readings from wells containing cells stimulated with the agonist bradykinin (at 10 uM) were chosen as the positive control.
molecule,measurement,setting,value
"5F12G1: murine monoclonal anti-BKB2R antibody (IgG2b,κ), VH comprising SEQ ID NO:1, VL comprising SEQ ID NO:2 (antibody, listed as Mus musculus, V domains shown) VH: EVKLEESGGGLVQPGGSMKLSCVVSGFTFSDYWMSWVRHSPEMGLEWVAEIRLKSDNYATHYAESVKGRFTISRDDSKSRLYLQINSLRGEDTGIYYCTRDYYAMEYWGQGTSVTVSS VL: DVVMTQTPLSLPVSLGDQASISCRSSQTIVHSNGKTYLEWYLQKPGQSPKLLIYKVSNRFSGVPDRFSGSGSGTEFTLKISRVETEDLGVYYCFQASHVPYTFGGGTKLEIK",increase in systolic blood pressure from baseline,"ZDF fa/fa rats [1]; 0.2 mg/kg s.c. every 3 days (highest dose), Day 0 to Day 21",0.12+/−4.4 mm Hg
same,"systolic, diastolic blood pressure and heart rate measurements relative to the control group MG2b-57","ZDF fa/fa rats [1]; all 5F12G1 doses, day 21",below the control group
same,serum cholesterol,ZDF fa/fa rats [2]; 0.008 mg/kg s.c. every 3 days,167 ± 7 mg/dL
same,serum cholesterol,ZDF fa/fa rats [2]; 0.04 mg/kg s.c. every 3 days,162 ± 18 mg/dL
same,decrease of serum cholesterol from baseline,ZDF fa/fa rats [2]; 0.2 mg/kg s.c. every 3 days,12 ± 8 mg/dL
same,serum cholesterol,ZDF fa/fa rats [2]; 0.2 mg/kg s.c. every 3 days,145 ± 26 mg/dL
same,percentage of activation,BKB2 receptor,72.7+/−3.5%

# Reference: patent US20140017242A1, “ANTI-BRADYKININ B2 RECEPTOR (BKB2R) MONOCLONAL ANTIBODY” (Diamedica, Inc., priority 2010, published 2014)
